{"source": "patent US10444224B2", "about": "“Method for RNA detection and quantification” (Cornell University, priority 2011, dated 2019)", "molecules": {"B1": {"name": "SEQ ID NO: 59: RNA aptamer listed for fluorophore DFAN (nucleic acid)", "chain": "GGGAGACGCAACUGAAUGAAAUACUUGGGAUGGUAAUGGCCUGGAGCUGCUUCGGCAGACCCGUGCAAGGACGUGGGAGAGGGGUCCGUAACUAGUCGCGUCAC", "modifications": "listed as RNA, chemistry not given here"}, "B2": {"name": "Spinach-streptavidin sensor: Spinach-based streptavidin sensor RNA molecule (nucleic acid)", "chain": "GACGCGACUGAAUGAAAUGGUGAAGGACGGGUCCACGACCGACCAGAAUCAUGCAAGUGCGUAAGAUAGUCGCGGGCCGGGGUUGUUGAGUAGAGUGUGAGCUCCGUAACUAGUCGCGUC", "modifications": "listed as RNA, chemistry not given here", "notes": "Spinach-based streptavidin sensor RNA molecule"}, "B3": {"name": "Spinach: first generation derivative of 24-2, DFHBI-binding RNA aptamer (nucleic acid)", "chain 1": "GACGCGACUGAAUGAAAUGGUGAAGGACGGGUCCAGGUGUGGCUGCUUCGGCAGUGCAGCUUGUUGAGUAGAGUGUGAGCUCCGUAACUAGUCGCGUC", "chain 2": "B3 chain 1 with G6A", "modifications": "listed as RNA, chemistry not given here"}}, "key": {"[1]": {"conditions": "Bell et al. 2000; cited from earlier work"}, "[2]": {"assay": "Emission and excitation of aptamer-DFAN complex", "format": "physicochemical", "conditions": "aptamer with DFAN"}, "streptavidin": {"biological_target": "streptavidin (Streptomyces avidinii, UniProt P22629)", "sequence (P22629 25-183, species assumed)": "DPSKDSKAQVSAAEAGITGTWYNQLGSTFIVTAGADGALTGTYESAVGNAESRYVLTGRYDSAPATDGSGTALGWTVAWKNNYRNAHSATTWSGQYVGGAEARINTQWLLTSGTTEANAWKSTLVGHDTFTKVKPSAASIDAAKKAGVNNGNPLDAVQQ", "assay": "Spinach-based protein sensor fluorescence activation", "format": "biochemical", "conditions": "micromolar concentrations of protein, DFHBI included", "description": "Using the same strategy from Example 5-7, a streptavidin aptamer (Srisawat and Engelke, “Streptavidin Aptamers: Affinity Tags for the Study of RNAs and Ribonucleoproteins, RNA 7:632-41 (2001), which is hereby incorporated by reference in its entirety) was fused to Spinach, and the transducer domain was optimized. The resulting RNA molecule is illustrated in FIG. 16A. The sensor was separately exposed to solutions containing micromolar concentrations of streptavidin, ovalalbumin, BSA, and lysozyme. […] Thus, the approach is generalizable not just to small molecules, but also proteins."}, "[3]": {"assay": "Photobleaching curves on glass slides under continuous illumination", "format": "physicochemical", "conditions": "immobilized on glass slides, 130 W mercury lamp, 45 min", "method": "Photobleaching experiments were performed on fluorescein, EGFP and 24-2-DFHBI complexes immobilized on chemically functionalized glass slides (MicroSurfaces). To immobilized fluorescein, fluorescein cadaverine (Sigma-Aldrich) was reacted in 40 mM HEPES pH 8.0 with NHS-activated glass slides for 2 h at 25° C. Slides were then incubated in 100 mM Tris pH 8.0 to quench any unreacted NHS-activated sites. […] To immobilize 24-2-DFHBI, a 3′ amine modified 21-nt DNA oligo (sequence: 5′-GGTTGTAAGTTTTAGGTTGCC-NH2-3′, SEQ ID NO: 45; Integrated DNA Technologies) was reacted with NHS-activated glass slides. Unreacted NHS-activated sites were blocked as above. 24-2 RNA was then in vitro synthesized with a 5′ overhang complimentary to the immobilized DNA oligo. Purified 24-2 RNA was denatured at 65° C. and incubated with the slide at 25° C. for 20 min to allow hybridization to the immobilized oligonucleotide. […] Images were captured every 10 s with a CoolSnap HQ2 CCD camera through a 10× air objective mounted on a Nikon TE2000 microscope and analyzed with the NIS-Elements software. […] Total fluorescence was then plotted against exposure time and normalized to the maximum intensity of each fluorophore."}}, "note": "Numbering of substitutions follows the chain as printed.", "data": [{"molecule": "CC1=NC(=Cc2ccc(O)cc2)C(=O)N1C", "note": "[HBI, 4-(4-hydroxybenzylidene)-1,2-dimethyl-imidazol-5-one]", "values": [{"measurement": "pKa", "setting": "[1]", "result": 8.1}]}, {"molecule": "B1", "values": [{"measurement": "Em", "setting": "[2]", "result": "Em = 550 nm"}, {"measurement": "Ex", "setting": "[2]", "result": "Ex = 480 nm"}]}, {"molecule": "B2", "values": [{"measurement": "fluorescence activation by BSA, ovalbumin or lysozyme", "setting": "streptavidin", "result": "fail to increase fluorescence above background levels"}, {"measurement": "fluorescence activation by streptavidin", "setting": "streptavidin", "result": "specific fluorescence activation occurs only in solutions that contained streptavidin"}]}, {"molecule": "B3", "values": [{"measurement": "photobleaching during continuous illumination", "setting": "[3]", "result": "remarkable resistance to photobleaching"}]}]}
